Results as given in publication doi:10.1101/2022.11.10.516045.

Assays:
[1] = target: human PCPE-1 (procollagen C-proteinase enhancer protein-1), no tag (human) (UniProt Q15113); test: SPR
[2] = target: homotrimeric mini-procollagen II (human); test: SDS-PAGE in non-reducing against reducing
[3] = target: mini-procollagen III (human); test: SDS-PAGE in non-reducing against reducing
[4] = target: α2 chain of mini-procollagen I (human); test: co-purification by the tag of one chain, SDS-PAGE of the BMP-1 cleavage products

Sequence of UniProt Q15113 (Q15113 26-449): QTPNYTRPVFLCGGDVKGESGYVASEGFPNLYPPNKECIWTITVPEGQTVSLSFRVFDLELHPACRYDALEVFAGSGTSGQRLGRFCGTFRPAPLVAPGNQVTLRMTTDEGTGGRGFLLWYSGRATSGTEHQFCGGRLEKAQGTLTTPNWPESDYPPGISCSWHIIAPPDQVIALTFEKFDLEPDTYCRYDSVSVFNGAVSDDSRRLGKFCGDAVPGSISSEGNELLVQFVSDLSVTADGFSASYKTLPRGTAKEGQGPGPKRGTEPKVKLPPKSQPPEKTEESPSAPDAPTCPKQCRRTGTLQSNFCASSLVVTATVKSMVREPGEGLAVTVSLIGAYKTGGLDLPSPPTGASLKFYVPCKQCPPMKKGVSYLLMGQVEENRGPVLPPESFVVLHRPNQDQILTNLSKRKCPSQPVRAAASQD

KD1 (heterogeneous ligand model) [1]	KD2 (heterogeneous ligand model) [1]	stoichiometry N [2]	stoichiometry N [3]	stoichiometry N (α1 chains for one α2 chain) [4]	Substance
< 15 nM	< 15 nM				heterotrimeric mini-procollagen I (complex)
< 15 nM	< 15 nM	3			homotrimeric mini-procollagen II (domain or fragment)
< 15 nM	< 15 nM		3		mini-procollagen III (domain or fragment)
				2	α1 chain of mini-procollagen I (domain or fragment)
